Patent US20180265843A1, “METHOD AND MEDIUM FOR NEURAL DIFFERENTIATION OF PLURIPOTENT CELLS” (INSERM 9INSTITUT NATIONAL DE LA SANTÉ ET DE LA RECHERCHE …, priority 2009, published 2018)

Columns and labels:
hES cells [1] = experiment: Real-time qPCR of lineage marker transcripts after differentiation; format: cell-based, human; settings: for expression of early neural markers PAX6 and SOX1: 8 days treatment in N2B27, qPCR; for neural crest cells (PAX3+/SOX10+) and keratinocytes (Cytokeratins 8 and 18), alternative fates from primitive ectoderm: 8 days treatment, qPCR and ICC
Experimental: (§1) Human ES cell cultures or IFS cultures reaching 70-80% confluence were used to perform neural induction using NFS medium. Colonies were cut in pieces and manually detached in N2B27 or NFS medium completed with the Rock-inhibitor Y27632 (10 μM, Calbiochem). Clusters were transferred for 6 h in a low attachment Petri dish in order to completely starve them from the influence of the feeders. Finally, the hES or IFS suspension was plated in the same medium at a 1:1 ratio in culture dishes pre-coated with poly-ornithin and laminin (2 μg/ml, Sigma). The day after and then every other day, the medium was changed for NFS medium without Y27632.
Total RNA was isolated using the RNeasy Mini Kit (Qiagen) according to the manufacturer's instructions. A total of 500 ng of RNA were reverse transcribed into cDNA with SuperScript III (Invitrogen) using random primers. Real-time Q-PCR was performed with SYBR Green as a probe on a LC480 Real-Time system (Roche). Quantification was performed at a threshold detection line (Ct value). The Ct of each target gene was normalized against that of the cyclophilin as a housekeeping gene. The 2-ΔΔCt method was used to determine the relative level of expression of each gene. Data were expressed as mean±SEM. Primer sequences are listed in follow.

hES cells [2] = experiment: FACS analysis of culture composition after differentiation with Noggin, SB431542 or both (NFS); format: cell-based, human; settings: for differentiation of hES cells into an alternative fate than the neural lineage: 8 days treatment in N2B27; for proportion of neural cells, in words: 8 days treatment in N2B27, FACS
Description: A—FACS analyses of the composition of the whole culture after 8 days of differentiation in N2B27 alone or completed with Noggin, SB431542 or both (NFS). B—QPCR quantification of transcript specific of ES cells (Oct4 and Nanog) and early neural precursors (PAX6 and SOX1) for each condition of differentiation.
as §1
Cells were collected using trypsin and fixed with 2% PFA for 15 min at 4° C. Permeabilization was performed using a PBS/0.1% saponin solution 10 min at RT. The same solution was then used to dilute primary antibodies as followed: mouse monoclonal OCT4 antibody linked to phycoerythrin (oct4-PE, 1:10°, BD Biosciences) and polyclonal rabbit anti-SOX2 antibody (1:500°, Chemicon). Cells were exposed to the mixture of primary antibodies 45 min at RT. An additional incubation with anti-rabbit secondary antibodies linked to AlexaFluo 488 was performed during 30 min at RT in order to detect SOX2 unconjugated antibodies. FACS analysis was performed using a Becton Dickinson FACScalibur™ flow cytometer.
We first monitored the efficiency of neural differentiation obtained only by removing from the culture medium any known instructive signals for alternative cell fates. We used N2B27 medium, a defined medium previously developed to induce neural differentiation of both mouse and human embryonic stem cells in an adherent monolayer culture system (Ying et al., 2003; Lowell et al., 2006). In order to analyzed consistently differentiation of several naïve hES cell lines, we have develop a protocol of systematic counting where cells were stained using antibodies against OCT4 and SOX2 transcription factors and then, analysed using FACS technology. Cells expressing both OCT4 and SOX2 were considered as embryonic stem cells whereas cells expressing only SOX2 were counted as neural cells. Cells totally negative or expressing only OCT4 were designated as differentiated into other type of tissues or layers. FACS analysis was performed on 4 hES cell lines (Hues 24, H9, VUB01, SA01), 8 days after platting on laminin in N2B27. Neural differentiation was obtained with all cell lines, but the efficiency of differentiation appeared highly variable depending of the cell line used, ranging from 33.84% for SA01 line to 82.33% for VUB01 line (FIG. 1-A).

[3] = 8 days of differentiation, qPCR

NC(=O)c1ccc(-c2nc(-c3ccc4c(c3)OCO4)c(-c3ccccn3)[nH]2)cc1 [SB431542, 4-(5-Benzol[1,3]dioxol-5-yl-4-pyrlidn-2-yl-1H-imidazol-2-yl)-benzamide hydrate, reference compound]
markers of primitive endoderm (SOX17, FOXA1) and primitive mesoderm (Brachyury, FLK1) (hES cells [1]; [3]): not detected | expression of early neural markers PAX6 and SOX1 (hES cells [1]): didn't increase robustly | neural crest cells (PAX3+/SOX10+) and keratinocytes (Cytokeratins 8 and 18), alternative fates from primitive ectoderm (hES cells [1]): detected | differentiation of hES cells into an alternative fate than the neural lineage (hES cells [2]): drastic differentiation of ES into an alternative fate | proportion of neural cells, in words (hES cells [2]): didn't increase robustly

B1: Noggin: natural inhibitor of the BMP pathway; recombinant noggin from R&D Systems or Preprotech (protein, UniProt Q13253 28-232, looked up)
Noggin: QHYLHIRPAPSDNLPLVDLIEHPDPIFDPKEKDLNETLLRSLLGGHYDPGFMATSPPEDRPGGGGGAAGGAEDLAELDQLLRQRPSGAMPSEIKGLEFSEGLAQGKKQRLSKKLRRKLQMWLWSQTFCPVLYAWNDLGSRFWPRYVKVGSCFSKRSCSVPEGMVCKPSKSVHLTVLRWRCQRRGGQRCGWIPIQYPIISECKCSC
markers of primitive endoderm (SOX17, FOXA1) and primitive mesoderm (Brachyury, FLK1) (hES cells [1]; [3]): not detected | transcripts of extra-embryonic tissue markers CDX2 and Eomes (hES cells [1]; [3]): not detected | expression of early neural markers PAX6 and SOX1 (hES cells [1]): slight increased | neural crest cells (PAX3+/SOX10+) and keratinocytes (Cytokeratins 8 and 18), alternative fates from primitive ectoderm (hES cells [1]): not detected | differentiation of hES cells into an alternative fate than the neural lineage (hES cells [2]): complete blockage | proportion of neural cells, in words (hES cells [2]): slight increased | ES cells expressing Oct4 and NANOG remaining in the culture (hES cells [2]; after 8 days of treatment): a large number of ES cells
